Test results taken from patent publication EP2468776.

Target: T1, Slit2-His (UniProt O94813)
T1 chain: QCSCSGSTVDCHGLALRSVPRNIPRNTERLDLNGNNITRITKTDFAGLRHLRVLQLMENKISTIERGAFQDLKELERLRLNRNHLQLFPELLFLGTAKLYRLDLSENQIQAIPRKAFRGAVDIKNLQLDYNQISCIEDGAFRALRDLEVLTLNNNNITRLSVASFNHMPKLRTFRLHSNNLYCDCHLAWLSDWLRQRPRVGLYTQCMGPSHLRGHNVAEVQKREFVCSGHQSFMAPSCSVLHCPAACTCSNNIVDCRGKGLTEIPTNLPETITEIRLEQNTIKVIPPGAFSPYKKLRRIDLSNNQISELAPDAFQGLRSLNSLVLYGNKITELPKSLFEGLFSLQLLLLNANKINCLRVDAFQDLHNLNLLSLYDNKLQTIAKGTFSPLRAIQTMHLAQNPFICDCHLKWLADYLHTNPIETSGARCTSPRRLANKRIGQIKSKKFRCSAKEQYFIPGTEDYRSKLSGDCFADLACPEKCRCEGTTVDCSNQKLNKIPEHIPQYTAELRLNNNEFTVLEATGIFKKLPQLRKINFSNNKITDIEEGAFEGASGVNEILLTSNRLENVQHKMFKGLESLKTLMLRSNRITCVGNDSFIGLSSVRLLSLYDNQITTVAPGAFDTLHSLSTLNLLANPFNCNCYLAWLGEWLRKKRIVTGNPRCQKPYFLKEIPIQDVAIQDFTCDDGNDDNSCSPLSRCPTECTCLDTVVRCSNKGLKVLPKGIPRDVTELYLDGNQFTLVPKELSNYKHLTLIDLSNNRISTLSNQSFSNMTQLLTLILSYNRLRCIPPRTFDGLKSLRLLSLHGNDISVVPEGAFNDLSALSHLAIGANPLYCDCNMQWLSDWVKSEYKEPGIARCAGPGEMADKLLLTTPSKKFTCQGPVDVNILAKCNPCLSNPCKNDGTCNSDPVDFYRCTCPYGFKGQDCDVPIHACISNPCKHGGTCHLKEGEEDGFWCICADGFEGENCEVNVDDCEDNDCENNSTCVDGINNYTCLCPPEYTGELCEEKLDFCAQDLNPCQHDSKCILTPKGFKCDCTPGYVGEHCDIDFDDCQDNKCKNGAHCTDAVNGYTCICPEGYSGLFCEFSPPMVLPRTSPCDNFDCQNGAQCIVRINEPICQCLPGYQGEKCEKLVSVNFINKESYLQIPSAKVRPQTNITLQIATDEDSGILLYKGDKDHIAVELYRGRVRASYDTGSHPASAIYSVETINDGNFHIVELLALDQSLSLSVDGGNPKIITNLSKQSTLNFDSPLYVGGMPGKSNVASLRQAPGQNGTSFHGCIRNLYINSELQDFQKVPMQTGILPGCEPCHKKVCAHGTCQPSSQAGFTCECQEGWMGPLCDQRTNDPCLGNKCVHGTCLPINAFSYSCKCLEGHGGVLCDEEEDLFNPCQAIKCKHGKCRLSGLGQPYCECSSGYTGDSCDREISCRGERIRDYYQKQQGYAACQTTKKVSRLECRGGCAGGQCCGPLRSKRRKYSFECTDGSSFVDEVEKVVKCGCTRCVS
Assay: SPR

binding result: no binding
B1: Robo4-Fc (protein)
chain: QDSPPQILVHPQDQLFQGPGPARMSCQASGQPPPTIRWLLNGQPLSMVPPDPHHLLPDGTLLLLQPPARGHAHDGQALSTDLGVYTCEASNRLGTAVSRGARLSVAVLREDFQIQPRDMVAVVGEQFTLECGPPWGHPEPTVSWWKDGKPLALQPGRHTVSGGSLLMARAEKSDEGTYMCVATNSAGHRESRAARVSIQEPQDYTEPVELLAVRIQLENVTLLNPDPAEGPKPRPAVWLSWKVSGPAAPAQSYTALFRTQTAPGGQGAPWAEELLAGWQSAELGGLHWGQDYEFKVRPSSGRARGPDSNVLLLRLPEKVPSAPPQEVTLKPGNGTVFVSWVPPPAENHNGIIRGYQVWSLGNTSLPPANWTVVGEQTQLEIATHMPGSYCVQVAAVTGAGAGEPSRPVCLLLEQAMERATQEPSEHGPWTLEQLRATLKRPEVIATCGVALWLLLLGTAVCIHRRRRARVHLGPGLYRYTSEDAILKHRMDHSDSQWLADTWRSTSGSRDLSSSSSLSSRLGADARDPLDCRRSLLSWDSRSPGVPLLPDTSTFYGSLIAELPSSTPARPSPQVPAVRRLPPQLAQLSSPCSSSDSLCSRRGLSSPRLSLAPAEAWKAKKKQELQHANSSPLLRGSHSLELRACELGNRGSKNLSQSPGAVPQALVAWRALGPKLLSSSNELVTRHLPPAPLFPHETPPTQSQQTQPPVAPQAPSSILLPAAPIPILSPCSPPSPQASSLSGPSPASSRLSSSSLSSLGEDQDSVLTPEEVALCLELSEGEETPRNSVSPMPRAPSPPTTYGYISVPTASEFTDMGRTGGGVGPKGGVLLCPPRPCLTPTPSEGSLANGWGSASEDNAASARASLVSSSDGSFLADAHFARALAVAVDSFGFGLEPREADCVFIDASSPPSPRDEIFLTPNLSLPLWEWRPDWLEDMEVSHTQRLGRGMPPWPPDSQISSQRSQLHCRMPKAGASPVDYS
